Reference: article PMC4148193, “Chromatin Insulator Factors Involved in Long-Range DNA Interactions and Their Role in the Folding of the Drosophila Genome” (PLoS Genetics, 2014)

Assays:
CP190-C = target: T1, CP190-C (Drosophila, UniProt Q24478 599-1096); assay: FCS; 50 nM; FA/FCS: 30 mM Tris/HCl pH 7.5, 100 mM NaCl, 20 uM ZnSO4, 5 mM mercaptoethanol, 0.01 mg/ml BSA, 0.004% Tween20, 2.5 nM DNA; EMSA: 150 mM NaCl, 30 mM Tris/HCl pH; conditions: protein: recombinant; tags: N-term 6xHis; blunt
T1 sequence: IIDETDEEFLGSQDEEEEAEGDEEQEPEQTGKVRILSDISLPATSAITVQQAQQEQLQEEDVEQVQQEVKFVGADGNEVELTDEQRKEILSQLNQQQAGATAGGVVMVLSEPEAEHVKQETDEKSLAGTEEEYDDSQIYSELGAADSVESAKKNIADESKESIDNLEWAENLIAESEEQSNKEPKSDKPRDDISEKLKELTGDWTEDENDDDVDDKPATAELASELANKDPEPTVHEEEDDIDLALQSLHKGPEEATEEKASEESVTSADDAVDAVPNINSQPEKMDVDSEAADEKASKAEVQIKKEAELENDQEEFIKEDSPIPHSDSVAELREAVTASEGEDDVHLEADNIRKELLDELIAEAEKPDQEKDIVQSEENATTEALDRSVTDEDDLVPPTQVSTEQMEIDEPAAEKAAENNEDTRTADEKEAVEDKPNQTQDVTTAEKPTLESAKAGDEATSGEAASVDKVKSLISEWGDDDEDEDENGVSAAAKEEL

BEAF32 (BEAF32B) = target: T2, BEAF32 (BEAF32B) (Drosophila, UniProt Q94513 1-282); assay: fluorescence anisotropy; Hill n=3±0.4; 20 uM ZnSO4; FA/FCS: 30 mM Tris/HCl pH 7.5, 100 mM NaCl, 20 uM ZnSO4, 5 mM mercaptoethanol, 0.01 mg/ml BSA, 0.004% Tween20, 2.5 nM DNA; EMSA: 150 mM NaCl, 30 mM Tris/HCl pH; conditions: protein: recombinant; tags: N-term MBP; C-term 6xHis; blunt
T2 sequence: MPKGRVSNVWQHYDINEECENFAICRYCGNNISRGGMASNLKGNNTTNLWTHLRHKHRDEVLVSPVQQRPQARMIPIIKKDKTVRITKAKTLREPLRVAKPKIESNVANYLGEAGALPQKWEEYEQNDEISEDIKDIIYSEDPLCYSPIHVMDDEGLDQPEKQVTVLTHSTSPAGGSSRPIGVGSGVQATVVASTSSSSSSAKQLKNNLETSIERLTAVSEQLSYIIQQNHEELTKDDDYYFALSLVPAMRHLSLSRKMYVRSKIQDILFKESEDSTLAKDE

[1] = target: T3, BEAF32 (BEAF32B);Chromator (Drosophila;Drosophila, UniProt Q94513;Q86BS3 1-282;1-926, |); assay: FCS/PIE-FCCS; 800 nM BEAF32, 100 nM Chromator; cross-correlation 13±4%, 47±14% of complexes bridged; FA/FCS: 30 mM Tris/HCl pH 7.5, 100 mM NaCl, 20 uM ZnSO4, 5 mM mercaptoethanol, 0.01 mg/ml BSA, 0.004% Tween20, 2.5 nM DNA; EMSA: 150 mM NaCl, 30 mM Tris/HCl pH; conditions: protein: recombinant;recombinant; tags: N-term MBP; C-term 6xHis;N-term 6xHis; blunt
T3 sequence 1: T2 sequence
T3 sequence 2: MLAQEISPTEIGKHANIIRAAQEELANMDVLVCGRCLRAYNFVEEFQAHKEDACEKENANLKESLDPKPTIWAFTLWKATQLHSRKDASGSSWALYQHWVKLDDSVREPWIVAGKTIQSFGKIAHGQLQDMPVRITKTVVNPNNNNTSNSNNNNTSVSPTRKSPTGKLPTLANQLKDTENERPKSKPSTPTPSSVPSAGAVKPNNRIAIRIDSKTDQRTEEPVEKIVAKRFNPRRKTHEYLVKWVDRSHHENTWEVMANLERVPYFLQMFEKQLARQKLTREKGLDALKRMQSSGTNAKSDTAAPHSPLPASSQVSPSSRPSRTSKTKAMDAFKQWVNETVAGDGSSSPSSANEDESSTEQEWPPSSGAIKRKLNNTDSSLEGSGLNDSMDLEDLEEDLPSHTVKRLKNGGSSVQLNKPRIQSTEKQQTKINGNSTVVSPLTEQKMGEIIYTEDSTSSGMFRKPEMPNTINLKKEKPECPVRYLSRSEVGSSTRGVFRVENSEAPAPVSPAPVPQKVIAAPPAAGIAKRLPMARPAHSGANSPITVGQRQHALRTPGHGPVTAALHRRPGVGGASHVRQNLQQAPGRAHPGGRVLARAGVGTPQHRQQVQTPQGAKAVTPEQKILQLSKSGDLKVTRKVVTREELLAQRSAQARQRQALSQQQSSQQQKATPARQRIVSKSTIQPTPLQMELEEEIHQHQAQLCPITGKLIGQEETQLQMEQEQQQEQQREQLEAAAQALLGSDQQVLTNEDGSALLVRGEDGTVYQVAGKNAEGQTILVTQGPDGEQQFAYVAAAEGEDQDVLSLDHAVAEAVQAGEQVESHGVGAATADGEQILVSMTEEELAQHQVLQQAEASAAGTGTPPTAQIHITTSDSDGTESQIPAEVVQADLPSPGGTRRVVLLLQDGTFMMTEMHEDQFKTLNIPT

B1: DNAS (dsDNA)
DNA 1: AGAAGTCAGCGCGATAGCATCGATATTTTCGTGACACGCTTGTCATCCGATAGGTAGT
DNA 2: ACTACCTATCGGATGACAAGCGTGTCACGAAAATATCGATGCTATCGCGCTGACTTCT
CP190-C
  binding result: no binding
BEAF32 (BEAF32B)
  Kd: 68 ± 5 nM
[1]
  binding result: binds
